The target in one assay is p62 PB1 (Homo sapiens) (UniProt Q13501). Conditions: cited from earlier work.
Assay [1] deals with polymerization-deficient p62^1–102 (D69A/D73A) (human) (UniProt Q13501). Kind of assay: ITC; VP-ITC, 25 °C, 10 mM HEPES pH 7.5, 150 mM NaCl; p62 D69A/D73A in the cell (5–20 μM), partner PB1 domain in the syringe (25–100 μM); one-site model; mean of three measurements.

In publication PMC6978347 one finds Kd data, which are given here for three substances.

Broadly, the Kd is the concentration at which binding is half-saturated.

p62 PB1 (from UniProt Q13501): the Kd with p62 PB1 (Homo sapiens) was 6 nM.
Take “PKCζ^11–101 (pKCζ–PB1) (from UniProt Q05513 11-101) (domain or fragment)”: the Kd in assay [1] turned out to be 8.9 nM.
Still for that read-out and setting: in the case of “NBR1^1–85 (human NBR1–PB1) (from UniProt Q14596 1-85) (domain or fragment)” it was 12.6 nM.
